Test results reported in patent publication US9005614B2, “PRLR-specific antibody and uses thereof” (Novartis AG, priority 2006, dated 2015).
Where a chain is given by its changes, count along the chain named. One block for each molecule: values may come before it.

How the values were obtained:
cynomolgus PRLR ECD = biological target: T1, cynomolgus PRLR ECD (Macaca fascicularis, UniProt A0A2K5WXK1); assay: Biacore kinetic titration, antibody captured on Protein A/G; format: binding; settings: Table 9, Cyno PRLR ECD; unit not given
T1 construct: antibodies against human and cynomolgus PRLR ECD
T1 sequence (A0A2K5WXK1 25-234): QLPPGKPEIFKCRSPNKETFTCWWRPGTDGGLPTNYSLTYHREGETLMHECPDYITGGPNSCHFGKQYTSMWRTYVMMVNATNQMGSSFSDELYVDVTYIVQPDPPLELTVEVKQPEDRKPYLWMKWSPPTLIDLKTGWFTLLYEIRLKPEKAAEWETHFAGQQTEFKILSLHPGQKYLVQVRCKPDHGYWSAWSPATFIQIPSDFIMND
Protocol: (§1) Affinity of the chimerized and HUMAN ENGINEERED™ antibodies determined by Biacore analysis. Briefly, a CM5 sensor chip (Biacore) immobilized with Protein A/G (Pierce) via NHS/EDC was used to capture approximately 600 RU of antibody on the chip surface. Five concentrations of PRLR ECD beginning at 5 ug/mL (185 nM) and serially diluted at 5× dilution to 0.3 nM were injected from lowest to highest concentration in the kinetic titration injection mode, and 15 minutes of dissociation data was collected. The experiments were double-referenced, i.e. an adjacent flow cell response was subtracted automatically, and the response from a buffer injection experiment was subtracted from the experimental data set. Kinetic and derived parameters (ka, kd and KD) were determined by fitting to a 1:1 Langmuir model using BiaEval software customized to the kinetic titration injection mode. Affinity measurements of both chimeric and all HUMAN ENGINEERED™ antibodies against human and cynomolgus PRLR ECD are summarized in Table 9 and Table 10.

human PRLR ECD = biological target: T2, human PRLR ECD (Homo sapiens, UniProt P16471); assay: as above; format: binding; settings: Table 9, Human PRLR ECD; unit not given
T2 construct: His6 (C); made in house; host or cells: Tn5 insect cells, baculovirus
T2 sequence (P16471 25-234): T1 sequence (A0A2K5WXK1 25-234) with V76I, T110A, M125I, T158I, I207T
Protocol: as §1

Mouse PRLR = biological target: T3, Mouse PRLR (Mus musculus, UniProt Q08501); assay: Cross species affinity analysis on covalently immobilized antibodies; format: binding; settings: for binding to Mouse PRLR (in words): compared with human PRLR
T3 sequence (Q08501 20-229 limits assumed): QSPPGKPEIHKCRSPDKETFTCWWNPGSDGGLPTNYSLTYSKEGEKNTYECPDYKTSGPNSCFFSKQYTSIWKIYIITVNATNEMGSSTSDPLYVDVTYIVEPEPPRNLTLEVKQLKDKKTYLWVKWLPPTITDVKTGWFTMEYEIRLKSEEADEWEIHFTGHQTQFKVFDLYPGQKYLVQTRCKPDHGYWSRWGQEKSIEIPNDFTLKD
Protocol: (§2) In order to compare rat and mouse cross reactivity using covalently immobilized antibodies, a CM4 chip was coupled with he.06.642-2 and he.06.275-4 antibodies via standard EDC-NHS amine coupling chemistries according to the recommended protocol from BIACORE® Inc. The PRLR ECD injections were performed at five concentrations in a three fold titration series starting at 111 nM and going down to 1.37 nM. Regeneration was performed with Glycine pH3.0. The affinity of all of the HE variants of XHA.06.642 and XHA.06.275 are very similar to the affinity of the parental chimeric antibody. […] Antibody he.06.275-4 binds to Cyno PRLR with 5 fold weaker affinity than Human PRLR.

Human PRLR = biological target: T4, Human PRLR (Homo sapiens, UniProt P16471); assay: as above; format: binding; settings: Table 11, Human; covalently immobilized antibody; in 1/s
T4 construct: His6 (C); made in house; host or cells: Tn5 insect cells, baculovirus
T4 sequence (P16471 25-234): T1 sequence (A0A2K5WXK1 25-234) with V76I, T110A, M125I, T158I, I207T
Protocol: as §2

Rat PRLR = biological target: T5, Rat PRLR (Rattus norvegicus, UniProt P05710); assay: as above; format: binding; settings: for binding to Rat PRLR (in words): compared with human PRLR
T5 sequence (P05710 20-229 limits assumed): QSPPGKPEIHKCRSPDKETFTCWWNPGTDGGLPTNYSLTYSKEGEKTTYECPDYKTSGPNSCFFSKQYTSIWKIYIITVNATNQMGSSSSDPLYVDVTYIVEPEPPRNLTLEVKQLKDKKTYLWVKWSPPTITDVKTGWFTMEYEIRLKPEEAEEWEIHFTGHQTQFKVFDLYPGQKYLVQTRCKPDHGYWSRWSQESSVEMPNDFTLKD
Protocol: as §2

Cyno PRLR = biological target: T6, Cyno PRLR (Macaca fascicularis, UniProt A0A2K5WXK1); assay: as above; format: binding, cynomolgus; settings: Table 11, Cyno; covalently immobilized antibody; in 1/s
T6 construct: antibodies against human and cynomolgus PRLR ECD
T6 sequence (A0A2K5WXK1 25-234): T1 sequence (A0A2K5WXK1 25-234)
Protocol: as §2

[1] = Solubility in PBS and aggregation state by size exclusion chromatography; format: physicochemical
Protocol: Elution of the major peak was by […] glycine pH 3.5. Pooled material was dialyzed into PBS and concentrated in centrifugal concentrators with a nominal molecular weight cut-off of 30 kD. Final purities were >95% and overall yields were approximately 60%. The final pools were assayed for endotoxin using an Endosafe PTS LAL unit (Charles River) or the QCL-1000 Chromogenic LAL Endpoint Assay (Lonza), and the results were <0.05 EU/mg (below the limit of detection) for all the antibodies. Aggregation state of the chimeric antibody he.06.642-2 was determined to be monomeric by SEC on a Superdex 200 10/300 GL column (GE Healthcare).

[2] = system: PRL-induced phospho-PRLR and phospho-Stat5; assay: PRL-induced PRLR and STAT5 phosphorylation in T47D cells by Western blot; format: cell-based, human
Protocol: Cells were pre-treated with 1 ug/ml mAb prior to 30 min stimulation with 50 ng/ml PRL. Lysates were analyzed for the presence of phospho-PRLR using antibodies specific for phosphotyrosine residues 546 and 611 of the PRLR.
T47D cells were incubated with 1 or 10 ug/ml mAb, then treated with or without PRL (50 ng/ml) for an additional 30 min.
The ability of selected antibodies to inhibit PRL-induced phosphorylation of STAT5 and AKT was determined as follows. Cells were seeded overnight in 6 well plates at a density of 3×10^5 cells/ml in phenol red-free RPMI/10% FBS. The following day, media was replaced with serum-free RPMI for 30 min. In some experiments, anti-PRLR or non-specific control antibodies were incubated with cells during this serum starvation period. 50 ng/ml PRL was then added to wells for 30 min, after which cells were rinsed once in PBS and lysed in a buffer consisting of 50 mM Tris-HCl, pH7.5, 150 mM NaCl, 1 mM EDTA, 1% NP-40, 1 mM Na3OV4, 50 mM NaF, 0.25% deoxycholate and protease inhibitors. Tubes were spun down at 14,000 rpm in a refrigerated microfuge and lysates were quantitated using BCA reagents. 30 μg of whole cell lysate was separated by 10% SDS-PAGE and proteins were detected using phospho-specific antibodies for STAT5A/B (Y694/Y699, Upstate) or PRLR (Y546/Y611, in-house) and ECL. Equal protein loading was determined by staining with antibodies specific for total STAT5 (BD) or PRLR (Zymed) or AKT (Cell Signalling). Results of a representative assay of effect of a PRLR-specific antibody on PRLR intracellular phosphorylation are shown in FIG. 6.
Chimeric mAbs were analyzed for their ability to inhibit the proliferation and survival of BaF/PRLR cells [FIG. 11]. […] In order to assess the PRLR signal-neutralizing capability of the chimeric antibodies in a human breast cancer model, T47D cells were treated with 1 ug/ml mAb for 30 min prior to PRL stimulation. At the same time, additional cell samples were incubated with antibody alone to examine any potential agonism gained through chimerization of the antibody candidates.
Antibodies were assessed in target modulation and cell proliferation assays. FIG. 16 depicts the effect of 2 concentrations of chXHA.06.642 and HUMAN ENGINEERED™ antibodies he.06.642-1 and he.06.642-2, on PRL-induced Stat5 phosphorylation in T47D cells. […] Similar results were found for chXHA.06.275 variants.

ka (cynomolgus PRLR ECD): 3.6E+05
kd (cynomolgus PRLR ECD): 6.0E−04
ka (human PRLR ECD): 6.2E+05
kd (human PRLR ECD): 3.2E−04
Murine KD/Human KD (Mouse PRLR): Murine KD/Human KD = 13,548
binding to Mouse PRLR (in words) (Mouse PRLR): does not bind effectively
koff (Human PRLR): 4.5E−04
binding to Rat PRLR (in words) (Rat PRLR): does not bind effectively
koff (Cyno PRLR): 8.2E−04
B1: he.06.275-4: HUMAN-ENGINEERED antibody from XHA.06.275; variable regions SEQ ID NO: 92 and SEQ ID NO: 94 by order of listing (antibody, V domains shown)
VH: QVQLQESGPGLVKPSQTLSLTCTVSGYSITSDYAWNWIRQFPGKGLEWMGYISYSGSTSYNPSLKSRITISRDTSKNQFSLQLNSVTAADTAVYFCARDYGYVFDYWGQGTTLTVSS
VL: DVQITQSPSSLSASPGDRITLTCRASKNIYKYLAWYQEKPGKANKLLIYSGSTLHSGIPSRFSGSGSGTDFTLTISSLQPEDFAMYYCQQHNDYPYTFGQGTKLEIK

ka (cynomolgus PRLR ECD): 1.8E+05
kd (cynomolgus PRLR ECD): 8.3E−03
ka (human PRLR ECD): 1.7E+05
kd (human PRLR ECD): 5.3E−04
Murine KD/Human KD (Mouse PRLR): Murine KD/Human KD = 1
koff (Mouse PRLR; Table 11, Murin, covalently immobilized antibody, in 1/s): 3.1E−04
binding to Mouse PRLR (in words) (Mouse PRLR): equivalent affinity
koff (Human PRLR): 9.1E−04
Rat KD/Human KD (Rat PRLR): Rat KD/Human KD = 0.75
koff (Rat PRLR; Table 11, Rat, covalently immobilized antibody, in 1/s): 1.4E−04
binding to Rat PRLR (in words) (Rat PRLR): equivalent affinity
koff (Cyno PRLR): 6.0E−03
B2: he.06.642-2: HUMAN-ENGINEERED antibody from XHA.06.642; variable regions SEQ ID NO: 88 and SEQ ID NO: 90 by order of listing (antibody, V domains shown)
VH: EVQLVESGGGLVQPGGSLRLSCAVSGFTFSSYGMSWVRQAPGKGLEWVATVSSGGTYTYYPDSVKGRFTISRDNSKNTLYLQMNSLRAEDTAVYYCARHRGNYYATYYYAMDYWGQGTLVTVSS
VL: DIVLTQSPDSLAVSLGERATINCKASKSVSTSGYTYMHWYQQKPGQPPKLLIYLASNRESGVPDRFSGSGSGTDFTLTISPVQAEDVATYYCQHSGELPPSFGQGTKLEIK
aggregation state by size exclusion chromatography [1]: monomeric
agonism: induction of PRLR signaling by antibody alone ([2]; T47D cells treated with mAb alone): neither antibody displayed any agonistic activity
block of PRL-induced signaling (phospho-PRLR, phospho-Stat5) ([2]; T47D cells, 1 or 10 ug/ml mAb, then PRL 50 ng/ml 30 min): complete p-Stat5 signal abrogation
